The values that follow come from patent publication US9981050B2, “Bispecific peptide conjugate and radioactive bispecific peptide imaging agent” (Institute of Nuclear Energy Research, Atomic Energy …, priority 2015, dated 2018).

Read-outs that look alike come from different tables or passages of the source.

A short description of series [1]: PET/CT imaging in NCI-H292 tumor bearing nude mice. In kind it is in vivo. As to conditions: mouse, iv, subcutaneous NCI-H292 tumor, 11 MBq via tail vein, 2 hours post-injection, PET/CT quantified by PMODE, read-out: tumor/muscle ratio (T/M ratio). The procedure: In this example, the bispecific peptide conjugate (that is, ^68Ga-NOTA-RGD-GE11) tagged with a radioactive isotope prepared in Example 2 was tested and was compared with monospecific peptide conjugate ^68Ga-NOTA-GE11. The right thigh of nude mice was subcutaneously inoculated with 5×10^6 NCI-H292 tumor cells. The tumors were allowed to grow for about 4 weeks until the tumor size reached 0.5 cm diameter. Then, the animals were anesthetized with isoflorane, injected with 11 MBq ^68Ga-NOTA-RGD-GE11 or ^68Ga-NOTA-GE11 (0.1 mL) via the tail vein, and imaged for 2 hours by Positron Emission Tomography/Computed Tomography (PET/CT). The images were quantified by using PMODE Software.

The target in another series is T1, EGFR in A549 tumor cells (Homo sapiens, UniProt P00533).
T1 construct: endogenous in cells; host or cells: A549 tumor cells
The experiment in a line: Specific binding assay: inhibition of anti-EGFR antibody binding to A549 tumor cells. The class given is cell-based. As to conditions: various concentrations, 2 hrs, absorbance decreases with increasing concentration. As to the method:
(§1) In this example, the bispecific peptide conjugate (that is, NOTA-c(RGDyk)-cys-6-ahx-GE11) prepared in Example 1 was assayed.
(§2) A549 tumor cells were plated in a 96-well plate (5×10^4 cells/well). Various concentrations of NOTA-c(RGDyk)-cys-6-ahx-GE11 and anti-EGFR antibody or anti-integrin αV antibody were added and reacted for 2 hrs. Then, a secondary antibody and ABTS were added and reacted for 8 hrs. The antibody binding was assayed by a fluorimeter.

The target in series [2] is T2, integrin αV in A549 tumor cells (Homo sapiens, UniProt P05106+P06756).
T2 construct: endogenous in cells; host or cells: A549 tumor cells
T2 sequence (P06756 31-889 limits assumed): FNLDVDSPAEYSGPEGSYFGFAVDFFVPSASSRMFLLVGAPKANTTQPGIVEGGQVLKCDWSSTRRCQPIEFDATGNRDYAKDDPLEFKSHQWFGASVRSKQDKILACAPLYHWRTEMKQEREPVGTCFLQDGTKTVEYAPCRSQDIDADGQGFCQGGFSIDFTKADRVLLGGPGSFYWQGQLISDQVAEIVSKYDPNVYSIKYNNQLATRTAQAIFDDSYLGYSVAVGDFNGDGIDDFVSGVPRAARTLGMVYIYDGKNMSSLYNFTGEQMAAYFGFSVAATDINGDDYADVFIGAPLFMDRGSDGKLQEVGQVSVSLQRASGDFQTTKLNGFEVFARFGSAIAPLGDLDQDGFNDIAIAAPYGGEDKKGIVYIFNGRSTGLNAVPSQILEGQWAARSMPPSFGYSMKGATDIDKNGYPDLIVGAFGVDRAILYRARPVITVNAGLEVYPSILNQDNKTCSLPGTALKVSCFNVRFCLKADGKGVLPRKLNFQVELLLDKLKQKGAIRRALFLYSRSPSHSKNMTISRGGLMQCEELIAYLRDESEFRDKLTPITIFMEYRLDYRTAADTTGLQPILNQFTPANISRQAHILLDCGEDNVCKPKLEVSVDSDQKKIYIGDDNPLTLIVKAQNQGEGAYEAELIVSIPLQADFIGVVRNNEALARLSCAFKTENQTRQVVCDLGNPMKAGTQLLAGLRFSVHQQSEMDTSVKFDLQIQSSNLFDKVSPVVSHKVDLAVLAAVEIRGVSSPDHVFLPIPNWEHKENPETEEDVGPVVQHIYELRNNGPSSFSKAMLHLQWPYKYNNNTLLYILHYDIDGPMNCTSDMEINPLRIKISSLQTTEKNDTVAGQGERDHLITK
T2 sequence (P06756 891-1048 partner limits assumed): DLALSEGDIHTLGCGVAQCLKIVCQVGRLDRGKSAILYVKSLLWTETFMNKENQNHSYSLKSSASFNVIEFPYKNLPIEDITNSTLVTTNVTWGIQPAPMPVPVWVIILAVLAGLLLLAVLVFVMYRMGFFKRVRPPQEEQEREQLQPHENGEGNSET
T2 sequence (P05106 27-788): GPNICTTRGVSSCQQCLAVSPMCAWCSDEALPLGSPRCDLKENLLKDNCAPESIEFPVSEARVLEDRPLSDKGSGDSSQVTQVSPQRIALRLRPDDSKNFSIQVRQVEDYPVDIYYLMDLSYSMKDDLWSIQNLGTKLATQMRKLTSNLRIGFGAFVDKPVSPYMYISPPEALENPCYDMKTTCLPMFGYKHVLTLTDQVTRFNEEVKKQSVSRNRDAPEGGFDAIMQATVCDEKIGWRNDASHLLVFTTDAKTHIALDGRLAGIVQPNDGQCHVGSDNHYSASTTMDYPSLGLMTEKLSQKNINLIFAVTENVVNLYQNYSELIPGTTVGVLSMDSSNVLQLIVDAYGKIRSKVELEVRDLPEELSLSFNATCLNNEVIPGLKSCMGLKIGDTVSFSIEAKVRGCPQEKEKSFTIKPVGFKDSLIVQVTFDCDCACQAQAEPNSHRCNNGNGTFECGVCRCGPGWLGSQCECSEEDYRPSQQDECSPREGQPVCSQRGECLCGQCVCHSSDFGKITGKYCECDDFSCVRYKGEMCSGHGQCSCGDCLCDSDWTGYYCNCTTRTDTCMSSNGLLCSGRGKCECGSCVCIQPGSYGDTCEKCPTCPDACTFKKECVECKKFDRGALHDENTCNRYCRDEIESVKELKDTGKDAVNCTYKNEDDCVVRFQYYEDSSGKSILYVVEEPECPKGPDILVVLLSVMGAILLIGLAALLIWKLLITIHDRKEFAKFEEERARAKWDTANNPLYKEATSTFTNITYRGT
The experiment in a line: Specific binding assay: inhibition of anti-integrin αV antibody binding to A549 tumor cells. In kind it is cell-based. As to conditions: various concentrations, 2 hrs, absorbance decreases with increasing concentration. As to the method:
as §1, §2

Consider `CC[C@H](C)[C@H](NC(=O)[C@@H](NC(=O)[C@H](CC(N)=O)NC(=O)[C@H](CCC(N)=O)NC(=O)[C@@H]1CCCN1C(=O)[C@@H](NC(=O)[C@H](Cc1ccc(O)cc1)NC(=O)CNC(=O)[C@H](Cc1ccc(O)cc1)NC(=O)[C@H](Cc1c[nH]c2ccccc12)NC(=O)[C@H](Cc1c[nH]cn1)NC(=O)[C@H](Cc1ccc(O)cc1)NC(=O)CCCCCNC(=O)[C@H](CSC1CC(=O)N(CCC(=O)NCCCC[C@@H]2NC(=O)[C@@H](Cc3ccc(O)cc3)NC(=O)[C@H](CC(=O)O)NC(=O)CNC(=O)[C@H](CCCNC(=N)N)NC2=O)C1=O)NC(=O)CN1CCN(CC(=O)O)CCN(CC(=O)O)CC1)[C@@H](C)O)C(C)C)C(=O)O` (stereo partly shown) [^68Ga-NOTA-RGD-GE11, metal not drawn], for which, in series [1] (tumor / muscle, total radioactivity), the tissue to tissue ratio at 2 h came to 4.31.
As to NOTA-c(RGDyk)-cys-6-ahx-GE11, the “inhibition of the binding of the anti-EGFR antibody to tumor cells” value at EGFR in A549 tumor cells is listed as “can effectively inhibit the binding”. Moreover, the “inhibition of the binding of the anti-integrin αV antibody to tumor cells” value in series [2] was “can effectively inhibit the binding”.
`CC[C@H](C)[C@H](NC(=O)[C@@H](NC(=O)[C@H](CC(N)=O)NC(=O)[C@H](CCC(N)=O)NC(=O)[C@@H]1CCCN1C(=O)[C@@H](NC(=O)[C@H](Cc1ccc(O)cc1)NC(=O)CNC(=O)[C@H](Cc1ccc(O)cc1)NC(=O)[C@H](Cc1c[nH]c2ccccc12)NC(=O)[C@H](Cc1c[nH]cn1)NC(=O)[C@H](Cc1ccc(O)cc1)NC(=O)CCCCCNC(=O)[C@H](CS)NC(=O)CN1CCN(CC(=O)O)CCN(CC(=O)O)CC1)[C@@H](C)O)C(C)C)C(=O)O` [^68Ga-NOTA-GE11, metal not drawn, reference compound]: the tissue to tissue ratio at 2 h in series [1] (in vivo) came out at 1.87.
